In data set [1] the target is T1, Thermotoga neapolitana (DSM 5068) alkaline phosphatase, purified native enzyme (Thermotoga neapolitana, UniProt B9K6X5).
T1 sequence (B9K6X5 23-436): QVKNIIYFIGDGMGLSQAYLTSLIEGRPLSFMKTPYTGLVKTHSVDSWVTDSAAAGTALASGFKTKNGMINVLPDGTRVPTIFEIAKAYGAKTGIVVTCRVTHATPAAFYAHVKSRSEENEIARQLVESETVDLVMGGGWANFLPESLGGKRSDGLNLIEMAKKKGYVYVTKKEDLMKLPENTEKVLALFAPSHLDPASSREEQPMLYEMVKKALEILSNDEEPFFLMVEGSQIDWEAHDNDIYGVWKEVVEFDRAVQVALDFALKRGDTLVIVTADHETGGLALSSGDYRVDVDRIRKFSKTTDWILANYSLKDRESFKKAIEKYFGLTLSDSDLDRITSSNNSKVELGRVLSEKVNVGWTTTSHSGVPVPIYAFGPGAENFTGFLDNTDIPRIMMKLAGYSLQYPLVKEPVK
As to the kind of experiment: biochemical. The note with it: 1 h, read-out: original activity detected after exhaustive treatment with EDTA.

Substrate in data set [2]: O=[N+]([O-])c1ccc(OP(=O)(O)O)cc1
As to the kind of experiment: purified protein, by the assay type. The note with it: other: p-nitrophenyl phosphate as substrate, optimal temperature and pH conditions (85° C., pH 9.9).

Where a name gives a salt, the structure may show the parent alone.

This passage reports activity, Km and Vmax results from patent publication US5980890A, “Purification and characterization of alkaline phosphates from Thermotoga neapolitana” (Michigan State University, priority 1997, dated 1999).

On to `O=C(O)CN(CCN(CC(=O)O)CC(=O)O)CC(=O)O` [EDTA, Ethylenediamine tetraacetic acid disodium salt], for which the activity at 10000 µM in data set [1] is approximately 5%.

B1: Thermotoga neapolitana (DSM 5068) alkaline phosphatase, purified native enzyme (Thermotoga neapolitana DSM 4359) (protein)
chain: T1 sequence (B9K6X5 23-436)
Broadly, the Km is the concentration of substrate that gives half-maximal velocity. Turning to B1, in data set [2], the Km is 183 µM and the Vmax is listed as 1352 U/mg.
